From paper PMC2810336, “Mutational Analysis of Highly Conserved Residues in the Phage PhiC31 Integrase Reveals Key Amino Acids Necessary for the DNA Recombination”

Assays:
Experiment in all cases: EMSA; 400 nM protein; 50 ng/ul Poly (competitor (so in the source)), 0.05% NP-40, 50 mM KCl, 5 mM MgCl2, 10 mM EDTA, 20 ul, 0.4 ng (16 fmol) probe; 30 min at room temperature (Methods) or 30 C; pH not stated; synapsis 2 h at 30 C
Settings in all cases: protein: recombinant; tags: C-terminal His; chain copies: 2; label: biotin, double-strand end-labeled; blunt
[1] = target: T1, phiC31 integrase C376A/G377A (Streptomyces phage phiC31, UniProt Q38194 1-613, C376A;G377A)
T1 sequence: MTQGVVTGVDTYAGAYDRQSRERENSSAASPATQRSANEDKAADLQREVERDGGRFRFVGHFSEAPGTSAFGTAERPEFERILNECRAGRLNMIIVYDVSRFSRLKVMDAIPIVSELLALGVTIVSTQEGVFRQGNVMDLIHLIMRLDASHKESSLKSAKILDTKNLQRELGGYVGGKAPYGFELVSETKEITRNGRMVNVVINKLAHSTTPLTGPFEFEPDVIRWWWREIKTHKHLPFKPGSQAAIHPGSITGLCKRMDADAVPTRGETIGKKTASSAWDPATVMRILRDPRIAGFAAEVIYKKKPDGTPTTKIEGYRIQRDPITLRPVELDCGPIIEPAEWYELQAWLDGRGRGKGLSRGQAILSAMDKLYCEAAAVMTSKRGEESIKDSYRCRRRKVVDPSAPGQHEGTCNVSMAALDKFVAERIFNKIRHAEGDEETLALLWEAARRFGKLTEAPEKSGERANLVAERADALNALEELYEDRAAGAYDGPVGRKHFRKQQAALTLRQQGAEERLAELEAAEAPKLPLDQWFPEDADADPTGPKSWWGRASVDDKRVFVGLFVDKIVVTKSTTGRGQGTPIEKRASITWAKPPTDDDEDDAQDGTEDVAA

[2] = target: T2, phiC31 integrase Y393A (Streptomyces phage phiC31, UniProt Q38194 1-613, Y393A)
T2 sequence: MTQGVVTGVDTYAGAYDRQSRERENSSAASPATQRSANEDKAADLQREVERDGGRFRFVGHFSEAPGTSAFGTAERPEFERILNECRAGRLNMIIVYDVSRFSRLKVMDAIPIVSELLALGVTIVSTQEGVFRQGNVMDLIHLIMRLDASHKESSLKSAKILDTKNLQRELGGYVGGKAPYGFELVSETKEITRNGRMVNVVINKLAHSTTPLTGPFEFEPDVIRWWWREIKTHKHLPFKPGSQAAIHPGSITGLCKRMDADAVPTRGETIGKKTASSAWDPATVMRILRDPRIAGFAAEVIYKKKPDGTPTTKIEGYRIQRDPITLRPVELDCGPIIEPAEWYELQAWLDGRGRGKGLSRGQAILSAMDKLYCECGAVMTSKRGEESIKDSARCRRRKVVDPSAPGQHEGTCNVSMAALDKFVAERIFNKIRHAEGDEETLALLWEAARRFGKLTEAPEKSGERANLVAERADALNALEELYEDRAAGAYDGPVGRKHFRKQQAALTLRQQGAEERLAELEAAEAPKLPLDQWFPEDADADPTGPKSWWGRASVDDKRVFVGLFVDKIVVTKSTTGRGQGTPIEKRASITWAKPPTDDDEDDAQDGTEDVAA

[3] = target: T3, phiC31 integrase C374A (Streptomyces phage phiC31, UniProt Q38194 1-613, C374A)
T3 sequence: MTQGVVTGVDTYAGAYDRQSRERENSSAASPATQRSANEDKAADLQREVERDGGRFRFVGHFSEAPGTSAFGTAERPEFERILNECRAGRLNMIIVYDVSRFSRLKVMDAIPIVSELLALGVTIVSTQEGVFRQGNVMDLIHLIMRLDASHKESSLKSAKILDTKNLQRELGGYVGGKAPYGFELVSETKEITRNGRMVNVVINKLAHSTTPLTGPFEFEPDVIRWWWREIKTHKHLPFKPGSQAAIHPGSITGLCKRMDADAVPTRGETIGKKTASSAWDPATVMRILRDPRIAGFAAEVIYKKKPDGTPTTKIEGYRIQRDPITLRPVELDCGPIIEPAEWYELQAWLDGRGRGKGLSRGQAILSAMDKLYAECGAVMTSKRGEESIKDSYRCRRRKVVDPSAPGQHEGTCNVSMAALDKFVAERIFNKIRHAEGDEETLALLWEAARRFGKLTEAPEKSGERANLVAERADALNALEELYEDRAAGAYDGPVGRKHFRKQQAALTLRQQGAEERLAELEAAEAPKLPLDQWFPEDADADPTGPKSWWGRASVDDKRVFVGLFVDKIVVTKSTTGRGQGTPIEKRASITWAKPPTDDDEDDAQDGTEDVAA

Measured: binding signal

B1: attB 41 bp (dsDNA)
DNA 1: CGGGTGCCAGGGCGTGCCCTTGGGCTCCCCGGGCGCGTACT
DNA 2: AGTACGCGCCCGGGGAGCCCAAGGGCACGCCCTGGCACCCG
0 % of WT: all assays above
